# Measured values from US20240150490A1 (MABPRO A S, published 2024).
# Assays:
# [1] = molecular target: CA IX expressed by cells (C-33a_CA IX transfectants; hypoxic BT-20, JIMT-1, 8-MG-BA and 42-MG-BA cells) (human, UniProt Q16790 38-459); experiment: cell-based or functional assay
# recombinant human CA IX [2] = molecular target: T1, recombinant human CA IX (human, UniProt Q16790 38-414); experiment: SPR (Biacore T200), antibody captured on CM5 chip, rh CA IX in flow, 25 C
# Description: (§1) In order to determinate the antigen-binding affinity of humanized variants, measurements of affinity constant (KD) for antibodies binding to CA IX were performed by SPR using a Biacore 2000 (T200 in case of CA9hu-2) instrument (GE Healthcare, Piscataway, NJ USA). Each humanized antibody variant was captured on the CM5 sensor chip and recombinant human CA IX (rh CA IX; 42 kDa; R&D Systems, Inc., Minneapolis MN, USA) protein as an antigen was added to the buffer flowing over the chip. The setting details of quantitative interaction analysis between humanized antibodies and rh CA IX were as follows: flow rate 30 μl/min; analysis temperature 25° C.; analysis buffer (10mM HEPES pH 7.4, 150 mM NaCl, […], 0.05% Tween 20). Results from SPR analysis are expressed as the equilibrium dissociation constant (KD) (Table 7).
# recombinant human CA IX [3] = molecular target: T1, recombinant human CA IX; experiment: SPR (Biacore 2000), antibody captured on CM5 chip, rh CA IX in flow, 25 C
# Description: as §1
"ADCC reporter luminescence, C-33a_CA IX against C-33a_neo cells [1] [times]",Kd (recombinant human CA IX [2]) [nM],Kd (recombinant human CA IX [3]) [nM],Binder
2,44.2,,"CA9hu-2_HC4LC3 (antibody, V domains shown, Humanized from murine IV/18; also called HC4LC3 (CA9hu-2)) VH: EVQLVESGGGVVQPGRSLRLSCAASGFTFNTNAMHWVRQAPGKGLEWVARIRSKSNNYTTYYADSVKDRFTISRDNSKNTLYLQMNSLRAEDTAVYYCVCGSWFAYWGQGTLVTVSS VL: DIQMTQSPDSLAVSLGERATINCKSSQSLLNSSNQKNYLAWYQQKPGQPPKLLIYFTSTRQSGVPDRFSGSGSGTDFTLTISSLQAEDVAVYFCQQHYSIPLTFGQGTKVEIK"
2,62.3,,"CA9hu-2_HC3LC3 (antibody, V domains shown, Humanized from murine IV/18; also called HC3LC3 (CA9hu-2)) VH: QVQLVESGGGVVQPGGSLRLSCAASGFTFNTNAMHWVRQAPGRGLEWVARIRSKSNNYTTYYADSVKDRFTISRDNSKNTLYLQVNSLRAEDTAVYYCVCGSWFAYWGQGTLVTVSS VL: DIQMTQSPDSLAVSLGERATINCKSSQSLLNSSNQKNYLAWYQQKPGQPPKLLIYFTSTRQSGVPDRFSGSGSGTDFTLTISSLQAEDVAVYFCQQHYSIPLTFGQGTKVEIK"
2,73.1,,"CA9hu-2_HC3LC4 (antibody, V domains shown, Humanized from murine IV/18; also called HC3LC4 (CA9hu-2)) VH: QVQLVESGGGVVQPGGSLRLSCAASGFTFNTNAMHWVRQAPGRGLEWVARIRSKSNNYTTYYADSVKDRFTISRDNSKNTLYLQVNSLRAEDTAVYYCVCGSWFAYWGQGTLVTVSS VL: DIVMTQSPDSLAVSLGERATINCKSSQSLLNSSNQKNYLAWFQQKPGQPPKVLIYFTSTRQSGVPDRFTGSGSGTDFTLTISSLQAEDVAVYYCQQHYSIPLTFGQGTKLEIK"
2,37.4,,"CA9hu-2_HC3LC1 (antibody, V domains shown, Humanized from murine IV/18; also called HC3LC1 (CA9hu-2)) VH: QVQLVESGGGVVQPGGSLRLSCAASGFTFNTNAMHWVRQAPGRGLEWVARIRSKSNNYTTYYADSVKDRFTISRDNSKNTLYLQVNSLRAEDTAVYYCVCGSWFAYWGQGTLVTVSS VL: DVVMTQSPDSLAVSLGERVTINCKSSQSLLNSSNQKNYLAWYQQKPGQSPKLLIYFTSTRQSGVPDRFSGSGSGTDFTLTISSLQAEDVAVYYCQQHYSIPLTFGQGTKLEIK"
2,32.7,,"CA9hu-2_HC4LC2 (antibody, V domains shown, Humanized from murine IV/18; also called HC4LC2 (CA9hu-2)) VH: EVQLVESGGGVVQPGRSLRLSCAASGFTFNTNAMHWVRQAPGKGLEWVARIRSKSNNYTTYYADSVKDRFTISRDNSKNTLYLQMNSLRAEDTAVYYCVCGSWFAYWGQGTLVTVSS VL: DIVMTQSPDSLAVSLGERATINCKSSQSLLNSSNQKNYLAWFQQKPGQPPNLVIYFTSTRQSGVPDRFSGSGSGTDFTLTINSLQAEDVAVYFCQQHYSIPLTFGQGTQVEIK"
2,40.1,,"CA9hu-2_HC3LC2 (antibody, V domains shown, Humanized from murine IV/18; also called HC3LC2 (CA9hu-2)) VH: QVQLVESGGGVVQPGGSLRLSCAASGFTFNTNAMHWVRQAPGRGLEWVARIRSKSNNYTTYYADSVKDRFTISRDNSKNTLYLQVNSLRAEDTAVYYCVCGSWFAYWGQGTLVTVSS VL: DIVMTQSPDSLAVSLGERATINCKSSQSLLNSSNQKNYLAWFQQKPGQPPNLVIYFTSTRQSGVPDRFSGSGSGTDFTLTINSLQAEDVAVYFCQQHYSIPLTFGQGTQVEIK"
2,57.2,,"CA9hu-2_HC5LC3 (antibody, V domains shown, Humanized from murine IV/18; also called HC5LC3 (CA9hu-2)) VH: EVQLVESGGGLVQPGGSLKLSCAASGFTFNTNAMHWVRQASGKGLEWVGRIRSKSNNYTTYYADSVKDRFTISRDDSKNTAYLQMNSLKTEDTAVYYCVCGSWFAYWGQGTTVTVSS VL: DIQMTQSPDSLAVSLGERATINCKSSQSLLNSSNQKNYLAWYQQKPGQPPKLLIYFTSTRQSGVPDRFSGSGSGTDFTLTISSLQAEDVAVYFCQQHYSIPLTFGQGTKVEIK"
2,65.1,,"CA9hu-2_HC5LC5 (antibody, V domains shown, Humanized from murine IV/18; also called HC5LC5 (CA9hu-2)) VH: EVQLVESGGGLVQPGGSLKLSCAASGFTFNTNAMHWVRQASGKGLEWVGRIRSKSNNYTTYYADSVKDRFTISRDDSKNTAYLQMNSLKTEDTAVYYCVCGSWFAYWGQGTTVTVSS VL: DIVMTQSPDSLAVSLGERATINCKSSQSLLNSSNQKNYLAWYQQKPGQPPKLLIYFTSTRQSGVPDRFSGSGSGTDFTLTISSLQAEDVAVYYCQQHYSIPLTFGQGTKLEIK"
2,74.6,,"CA9hu-2_HC4LC4 (antibody, V domains shown, Humanized from murine IV/18; also called HC4LC4 (CA9hu-2)) VH: EVQLVESGGGVVQPGRSLRLSCAASGFTFNTNAMHWVRQAPGKGLEWVARIRSKSNNYTTYYADSVKDRFTISRDNSKNTLYLQMNSLRAEDTAVYYCVCGSWFAYWGQGTLVTVSS VL: DIVMTQSPDSLAVSLGERATINCKSSQSLLNSSNQKNYLAWFQQKPGQPPKVLIYFTSTRQSGVPDRFTGSGSGTDFTLTISSLQAEDVAVYYCQQHYSIPLTFGQGTKLEIK"
2,47.3,,"CA9hu-2_HC5LC4 (antibody, V domains shown, Humanized from murine IV/18; also called HC5LC4 (CA9hu-2)) VH: EVQLVESGGGLVQPGGSLKLSCAASGFTFNTNAMHWVRQASGKGLEWVGRIRSKSNNYTTYYADSVKDRFTISRDDSKNTAYLQMNSLKTEDTAVYYCVCGSWFAYWGQGTTVTVSS VL: DIVMTQSPDSLAVSLGERATINCKSSQSLLNSSNQKNYLAWFQQKPGQPPKVLIYFTSTRQSGVPDRFTGSGSGTDFTLTISSLQAEDVAVYYCQQHYSIPLTFGQGTKLEIK"
2,105,,"CA9hu-2_HC5LC2 (antibody, V domains shown, Humanized from murine IV/18; also called HC5LC2 (CA9hu-2)) VH: EVQLVESGGGLVQPGGSLKLSCAASGFTFNTNAMHWVRQASGKGLEWVGRIRSKSNNYTTYYADSVKDRFTISRDDSKNTAYLQMNSLKTEDTAVYYCVCGSWFAYWGQGTTVTVSS VL: DIVMTQSPDSLAVSLGERATINCKSSQSLLNSSNQKNYLAWFQQKPGQPPNLVIYFTSTRQSGVPDRFSGSGSGTDFTLTINSLQAEDVAVYFCQQHYSIPLTFGQGTQVEIK"
2,41.9,,"CA9hu-2_HC4LC5 (antibody, V domains shown, Humanized from murine IV/18; also called HC4LC5 (CA9hu-2)) VH: EVQLVESGGGVVQPGRSLRLSCAASGFTFNTNAMHWVRQAPGKGLEWVARIRSKSNNYTTYYADSVKDRFTISRDNSKNTLYLQMNSLRAEDTAVYYCVCGSWFAYWGQGTLVTVSS VL: DIVMTQSPDSLAVSLGERATINCKSSQSLLNSSNQKNYLAWYQQKPGQPPKLLIYFTSTRQSGVPDRFSGSGSGTDFTLTISSLQAEDVAVYYCQQHYSIPLTFGQGTKLEIK"
2,69.8,,"CA9hu-2_HC5LC1 (antibody, V domains shown, Humanized from murine IV/18; also called HC5LC1 (CA9hu-2)) VH: EVQLVESGGGLVQPGGSLKLSCAASGFTFNTNAMHWVRQASGKGLEWVGRIRSKSNNYTTYYADSVKDRFTISRDDSKNTAYLQMNSLKTEDTAVYYCVCGSWFAYWGQGTTVTVSS VL: DVVMTQSPDSLAVSLGERVTINCKSSQSLLNSSNQKNYLAWYQQKPGQSPKLLIYFTSTRQSGVPDRFSGSGSGTDFTLTISSLQAEDVAVYYCQQHYSIPLTFGQGTKLEIK"
,,56,"CA9hu-1_HC5LC3 (antibody, V domains shown, Humanized from murine VII/20; also called HC5LC3 (CA9hu-1)) VH: EVQLVESGGGLVQPGGSLRLSCAASGFTFTDYYMHWVRQAPGKGLEWVGFIRNKASGYTPQYSASVKGRFTISRDDSKNSLYLQMNSLKTEDTAVYYCVRGGHAGSNYWYFDVWGQGTMVTVSS VL: DIQMTQSPSSLSASVGDRVTITCHVSQNINVWLSWYQQKPGEAPKLLIYQASNLHTGVPSRFSGSGSGTDFTLTISSLQPEDFATYYCQQGQSYPFTFGQGTKLEIK"
,,96,"CA9hu-1_HC1LC3 (antibody, V domains shown, Humanized from murine VII/20; also called HC1LC3 (CA9hu-1)) VH: EVQLVESGGGLVQPGGSLRLSCAASGFTFTDYYMHWVRQAPGKGLEWVAFIRNKASGYTPQYSASVKGRFTISRDDSKNSLYLQMNSLKIEDTAVYYCVRGGHAGSNYWYFDVWGQGTTVTVSS VL: DIQMTQSPSSLSASVGDRVTITCHVSQNINVWLSWYQQKPGEAPKLLIYQASNLHTGVPSRFSGSGSGTDFTLTISSLQPEDFATYYCQQGQSYPFTFGQGTKLEIK"
,,97,"CA9hu-1_HC1LC1 (antibody, V domains shown, Humanized from murine VII/20; also called HC1LC1 (CA9hu-1)) VH: EVQLVESGGGLVQPGGSLRLSCAASGFTFTDYYMHWVRQAPGKGLEWVAFIRNKASGYTPQYSASVKGRFTISRDDSKNSLYLQMNSLKIEDTAVYYCVRGGHAGSNYWYFDVWGQGTTVTVSS VL: DIQMTQSPSSLSASVGDRVTITCHVSQNINVWLSWYQQKPGKAPNLLIYQASNLHTGVPSRFSGSGSGTHFTLTISSLQPEDIATYYCQQGQSYPFTFGGGTKVEIK"
,,80,"CA9hu-1_HC1LC2 (antibody, V domains shown, Humanized from murine VII/20; also called HC1LC2 (CA9hu-1)) VH: EVQLVESGGGLVQPGGSLRLSCAASGFTFTDYYMHWVRQAPGKGLEWVAFIRNKASGYTPQYSASVKGRFTISRDDSKNSLYLQMNSLKIEDTAVYYCVRGGHAGSNYWYFDVWGQGTTVTVSS VL: DIQMTQSPSTLSASVGDRVTITCHVSQNINVWLSWYQQKPGNAPKLLIYQASNLHTGVPSRFSGSGSGTEFTLTIGSLQPDDFVTYYCQQGQSYPFTFGQGTKVEIK"
,,100,"CA9hu-1_HC1LC4 (antibody, V domains shown, Humanized from murine VII/20; also called HC1LC4 (CA9hu-1)) VH: EVQLVESGGGLVQPGGSLRLSCAASGFTFTDYYMHWVRQAPGKGLEWVAFIRNKASGYTPQYSASVKGRFTISRDDSKNSLYLQMNSLKIEDTAVYYCVRGGHAGSNYWYFDVWGQGTTVTVSS VL: DIQMTQSPSSLSASVGDRVTINCHVSQNINVWLSWYQQKPGEAPKLLIYQASNLHTGVPSRFSGSGSGTGFTLTIRSLQPEDYATYYCQQGQSYPFTFGQGTKLEIK"
